According to the supplement of paper PMC11246515:
± gives the standard deviation of the averaged measurements.

Assay: total protein half-life in vivo (active degradation + dilution); higher = more stable protein
[1] = E. coli NCM3722 delta-clpP delta-lon delta-hslV, growth: N-lim chemostat, doubling time 6 h
[2] = E. coli NCM3722 delta-clpP, growth: N-lim chemostat, doubling time 6 h
[3] = E. coli NCM3722 delta-hslV, growth: N-lim chemostat, doubling time 6 h
[4] = E. coli NCM3722 delta-lon, growth: N-lim chemostat, doubling time 6 h
[5] = E. coli NCM3722 delta-smpB, growth: N-lim chemostat, doubling time 6 h
[6] = wild type E. coli NCM3722, growth: C-lim chemostat, doubling time 3 h
[7] = wild type E. coli NCM3722, growth: C-lim chemostat, doubling time 6 h
[8] = wild type E. coli NCM3722, growth: C-lim chemostat, doubling time 12 h
[9] = wild type E. coli NCM3722, growth: N-lim chemostat, doubling time 6 h
[10] = wild type E. coli NCM3722, growth: N-lim chemostat, doubling time 12 h
[11] = wild type E. coli NCM3722, growth: P-lim chemostat, doubling time 6 h
[12] = wild type E. coli NCM3722, growth: P-lim chemostat, doubling time 12 h

For “MSRRAGTPTAKKVTQLVNVEEHVEGFRQVREAHRRELIDDYVELISDLIREVGEARQVDMAARLGVSQPTVAKMLKRLATMGLIEMIPWRGVFLTAEGEKLAQESRERHQIVENFLLVLGVSPEIARRDAEGMEHHVSEETLDAFRLFTQKHGAK [P0A9F1]”, the “total protein half-life in vivo” value [1] was 5.72 ± 0.35 h, the “total protein half-life in vivo” value [2] was 5.64 ± 0.32 h and the “total protein half-life in vivo” value [3] was 4.73 ± 0.12 h. The “total protein half-life in vivo” value [4] was 6 ± 0.3 h, the “total protein half-life in vivo” value [5] was 5.06 ± 0.61 h and the “total protein half-life in vivo” value [6] was 3 ± 0.046 h. For the same sequence, the “total protein half-life in vivo” value [7] was 5.03 ± 0.24 h, the “total protein half-life in vivo” value [8] was 12 ± 5.5 h and the “total protein half-life in vivo” value [9] was 4.66 ± 0.23 h. The “total protein half-life in vivo” value [10] was 9.78 ± 2.5 h, the “total protein half-life in vivo” value [11] was 3.96 ± 0.21 h and the “total protein half-life in vivo” value [12] was 8.06 ± 0.26 h.
In the case of “MSRRNTDAITIHSILDWIEDNLESPLSLEKVSERSGYSKWHLQRMFKKETGHSLGQYIRSRKMTEIAQKLKESNEPILYLAERYGFESQQTLTRTFKNYFDVPPHKYRMTNMQGESRFLHPLNHYNS [P0ACH5]”, the “total protein half-life in vivo” value [1] is reported as 3.42 ± 0.064 h and the “total protein half-life in vivo” value [4] is reported as over 8 h.
With “MSSEKLYSPLKVGAITAANRIFMAPLTRLRSIEPGDIPTPLMAEYYRQRASAGLIISEATQISAQAKGYAGAPGIHSPEQIAAWKKITAGVHAENGHMAVQLWHTGRISHASLQPGGQAPVAPSALSAGTRTSLRDENGQAIRVETSMPRALELEEIPGIVNDFRQAIANAREAGFDLVELHSAHGYLLHQFLSPSSNHRTDQYGGSVENRARLVLEVVDAGIEEWGADRIGIRVSPIGTFQNTDNGPNEEADALYLIEQLGKRGIAYLHMSEPDWAGGEPYTDAFREKVRARFHGPIIGAGAYTVEKAETLIGKGLIDAVAFGRDWIANPDLVARLQRKAELNPQRAESFYGGGAEGYTDYPTL” the “total protein half-life in vivo” value [1] was 5.08 ± 0.17 h, the “total protein half-life in vivo” value [2] was 2.14 ± 0.038 h and the “total protein half-life in vivo” value [3] was 1.51 ± 0.027 h. The “total protein half-life in vivo” value [5] was 1.5 ± 0.061 h, the “total protein half-life in vivo” value [6] was 2.13 ± 0.48 h and the “total protein half-life in vivo” value [7] was 2.98 ± 0.53 h. For the same sequence, the “total protein half-life in vivo” value [8] was 3.17 ± 0.57 h, the “total protein half-life in vivo” value [9] was 1.66 ± 0.12 h and the “total protein half-life in vivo” value [10] was 2.097 ± 0.015 h. The “total protein half-life in vivo” value [11] was 1.55 ± 0.16 h and the “total protein half-life in vivo” value [12] was 2.85 ± 1.7 h.
With “MSSKVERERRKAQLLSQIQQQRLDLSASRREWLETTGAYDRRWNMLLSLRSWALVGSSVMAIWTIRHPNMLVRWARRGFGVWSAWRLVKTTLKQQQLRG” the “total protein half-life in vivo” value [1] was 5.54 ± 0.84 h, the “total protein half-life in vivo” value [3] was 6 ± 0.61 h and the “total protein half-life in vivo” value [4] was 4.6 ± 1.6 h. For the same sequence, the “total protein half-life in vivo” value [5] was 5.78 ± 0.53 h, the “total protein half-life in vivo” value [6] was 2.56 ± 0.29 h and the “total protein half-life in vivo” value [7] was 4.85 ± 0.21 h. For the same sequence, the “total protein half-life in vivo” value [8] was 8.71 h, the “total protein half-life in vivo” value [9] was 5.6 ± 1.8 h and the “total protein half-life in vivo” value [10] was 11.4 h. The “total protein half-life in vivo” value [11] was 4.85 h and the “total protein half-life in vivo” value [12] was 10.2 ± 0.32 h.
